# US20040248211A1, “ICAM-related protein” (priority 1992, published 2004)
# T1: soluble ICAM-R (Homo sapiens, UniProt P32942)
# T1 construct: made in house; host or cells: Sf-9 insect cells, recombinant baculovirus (pBBIII.ICAM-Rt1), purified on Lentil Lectin Sepharose
# T1 sequence (P32942 30-485 limits assumed): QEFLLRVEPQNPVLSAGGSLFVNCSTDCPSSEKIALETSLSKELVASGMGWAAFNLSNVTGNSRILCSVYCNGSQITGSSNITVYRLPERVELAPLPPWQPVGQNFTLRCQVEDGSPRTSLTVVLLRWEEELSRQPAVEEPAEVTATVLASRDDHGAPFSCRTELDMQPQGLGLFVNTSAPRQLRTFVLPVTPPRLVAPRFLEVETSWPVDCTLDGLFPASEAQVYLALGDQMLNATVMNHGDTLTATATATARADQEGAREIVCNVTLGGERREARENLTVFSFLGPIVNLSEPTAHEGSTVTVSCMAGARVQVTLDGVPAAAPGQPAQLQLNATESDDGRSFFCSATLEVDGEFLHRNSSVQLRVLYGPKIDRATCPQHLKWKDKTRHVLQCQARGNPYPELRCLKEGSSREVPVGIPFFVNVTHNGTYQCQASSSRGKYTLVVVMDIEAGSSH
# T2: ICAM-R (Homo sapiens, UniProt P32942)
# T2 construct: express the full length ICAM-1 and ICAM-R proteins, respectively; expressed in transfected cells; host or cells: COS cells, DEAE-dextran, plasmid pcDNA1AmpICAM-R
# T2 sequence (P32942 30-547): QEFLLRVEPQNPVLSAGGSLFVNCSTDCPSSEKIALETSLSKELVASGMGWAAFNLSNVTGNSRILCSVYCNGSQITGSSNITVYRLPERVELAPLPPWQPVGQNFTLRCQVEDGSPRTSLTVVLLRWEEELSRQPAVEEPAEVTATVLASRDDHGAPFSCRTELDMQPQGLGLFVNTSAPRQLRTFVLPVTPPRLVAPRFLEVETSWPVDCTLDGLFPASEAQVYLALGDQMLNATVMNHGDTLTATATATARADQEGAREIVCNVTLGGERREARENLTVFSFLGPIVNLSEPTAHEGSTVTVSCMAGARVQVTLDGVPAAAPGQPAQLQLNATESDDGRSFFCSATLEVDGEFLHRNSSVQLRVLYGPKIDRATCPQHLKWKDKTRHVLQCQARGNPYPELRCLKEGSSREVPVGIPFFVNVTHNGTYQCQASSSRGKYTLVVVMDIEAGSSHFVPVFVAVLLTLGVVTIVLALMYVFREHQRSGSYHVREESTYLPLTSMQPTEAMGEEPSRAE
# B1: ICR-1.1: anti-ICAM-R monoclonal antibody, IgG2a, domain 1, ATCC HB 11053 (antibody, V domains shown)
# VH: QVQLQQSGAELAKPGASVKMSCKASGYTFTVYWMHWVKQRPGQGLEWIGYINPNTDYTEYNQRFQDKATLTADKSSSTAYMQLSSLTSEDSAVYYCARWGGNSYGLDYWGQGTSVTVSS
# VL: QIVLTQSPALMSASPGEKVTMTCSASSSVSYIYWYQQKPRSSPKPWIYLTSNLASGVPARFSGSGSGASYSLTISIMEAEDAATYYCQQWKSIPLTFGAGTKLELK
# B2: ICR-8.1: anti-ICAM-R monoclonal antibody, IgG1, domain 1, ATCC HB 11232 (antibody, V domains shown)
# VH: EIQLQQTGPELVKPGASVKISCKASGYSFTDCIILWVKQSHGKGLEWIGKINPYFGTTTYNLKFKGKATLTVDKSSSTAHMQLNSLTSEDSAVYYCARKEAYPDAMDYWGQGTSVTVSS
# VL: DAVMTQTPLSLPVSLGDQASISCRSSQSLVHSNGDTYLHWYLQKPGQSPQLLIYKVSNRFSGVPDRFSGSGSGTDFTLKLSRVEAEDLGVYFCSQSTHVPYTFGGGTKLEIK
# Experiments:
# resting lymphocytes = test: Restoration of anti-CD3 proliferation by IL-2; assay type: cell-based; conditions: human rIL-2 30 U/ml
# Method: Human PBL were fractionated and incubated on immobiized monoclonal antibodies as described in Section I above. The cells were collected, washed and replated on anti-CD3 either in the presence or absence of human rIL-2 at 30 U/ml.
# [1] = tested on: binding of JY cells (CD18+) to recombinant soluble human ICAM-R; test: JY cell adhesion to recombinant soluble human ICAM-R; assay type: cell-based; conditions: for Inhibition (%) of total CD18-dependent binding: antibody 10 μg/ml, PMA-treated JY cells, total = adhesion blocked by anti-CD18 60.3
# Method: The partially purified shICAM-R protein was assayed for binding to SKW3 cells that were pretreated with phorbol ester as described in Example 7 to activate LFA-1-dependent adhesion. The ICAM-R protein was coated onto 96-well Immulon 4 (Dynatech) plates after adjusting the lectin eluate to 25 mM carbonate pH 9.6 and incubated overnight at 4° C. The plates were washed two times with PBS, blocked for 30 minutes at 37° C. with 200 ul/well PBS, 1% BSA, and washed again with PBS before adding cells. SKW3 cells were washed in serum-free RPMI (Gibco), labelled with Calcein-AM (Molecular Probes), and stimulated with PMA. Cells were then added to the plates and incubated for 1 hour at 37° C. The plates were inverted in prewarmed PBS, 1% BSA and were incubated for 30 minutes. The plates were then removed and half of the contents of each well was aspriated. The plates were then scanned with a fluorescence microscope and an automated fluorescence reader.
# ICAM-R specific monoclonal antibodies listed in Table 11 in Example 22 were tested for their ability to inhibit binding of JY cells (CD18^+) to recombinant soluble human ICAM-R. Adhesion assays were performed as described in Example 9. Cells were treated with PMA and antibodies were then added at a final concentration of 10 μg/ml. Data was collected from triplicate wells during three independent experiments. Total CD18-dependent binding was determined as the amount of adhesion blocked by a control anti-CD18 monoclonal antibody 60.3. The percentage of total CD18-dependent binding that was inhibited by each monoclonal antibody is shown below in Table 4 wherein the names assigned to monoclonal antibodies produced by each hybridoma are given and “ND” indicates the antibody was not tested. The monoclonal antibody names are used throughout the following examples instead of hybridoma designations.
# human PBL = test: SEA-induced proliferation of PBL; assay type: cell-based; conditions: for proliferation in response to SEA, plate-bound antibody: 3 days, 3H-thymidine
# soluble ICAM-R = target: T1, soluble ICAM-R; test: ELISA binding to soluble ICAM-R coated onto plastic; conditions: serially diluted purified antibody; 50% maximal binding
# Method: Nine of the purified anti-ICAM-R monoclonal antibodies were diluted serially and assayed in an ELISA format for binding to a fixed amount of soluble ICAM-R (Example 9) coated onto plastic. The results of the assay are presented in Table 3 below wherein high affinity binding was defined as 50% maximal binding at a monoclonal antibody concentration of less than 1 μg/ml and low affinity binding was defined as 50% maximal binding at a monoclonal antibody concentration of greater than 1 μg/ml.
# ICAM-1 = target: T3, ICAM-1 (Homo sapiens, UniProt P05362); test: FACS binding to COS cell transfectants; conditions: antibody 5.0 ug/ml
# T3 construct: express the full length ICAM-1 and ICAM-R proteins, respectively; expressed in transfected cells; host or cells: COS cells, DEAE-dextran, plasmid pcDNA1AmpICAM-1
# Method: (§1) For the anti-ICAM-R monoclonal antibody binding assay, COS cells transfected with constructs encoding the ICAM-R chimeric proteins or control constructs were removed from the plates by EDTA treatment and aliquoted at 2.5×10^5 cells per well in a 96-well round bottom plate. Cells were washed 3 times with ice cold washing buffer (PBS containing 1% BSA and 0.05% sodium azide). Anti-ICAM-R monoclonal antibody was applied at 5.0 ug/ml in 50 ul final volume and incubated on ice for 30 minutes. Cells were then washed three times with cold washing buffer and incubated with the FITC labeled secondary antibody (sheep anti-mouse IgG F(ab′)2) at a 1:100 dilution on ice for 30 minutes in dark in 50 ul final volume. After the incubation, cells were washed again for three times in the ice cold washing buffer and resuspended in 200 ul of 1% paraformaldehyde. The samples were analyzed on a Becton-Dickinson FACScan instrument. Results of the assay are given below in Table 5 as percent positive COS cell transfectants, wherein MOPC 21 (IgG1) and UPC 10 (IgG2a) are isotype matched controls, 18E3D is an ICAM-1 specific monoclonal antibody and ICR-1.1 to ICR-9.2 are ICAM-R specific monoclonal antibodies. The reactivities of monoclonal antibodies ICR-1.1 through ICR-9.2 were assayed in a different experiment than monoclonal antibodies ICR-12.1 through ICR-17.1.
# ICAM-R = target: T2, ICAM-R; test: FACS binding to COS cell transfectants; conditions: antibody 5.0 ug/ml
# Method: as §1
# T3 sequence (P05362 28-532): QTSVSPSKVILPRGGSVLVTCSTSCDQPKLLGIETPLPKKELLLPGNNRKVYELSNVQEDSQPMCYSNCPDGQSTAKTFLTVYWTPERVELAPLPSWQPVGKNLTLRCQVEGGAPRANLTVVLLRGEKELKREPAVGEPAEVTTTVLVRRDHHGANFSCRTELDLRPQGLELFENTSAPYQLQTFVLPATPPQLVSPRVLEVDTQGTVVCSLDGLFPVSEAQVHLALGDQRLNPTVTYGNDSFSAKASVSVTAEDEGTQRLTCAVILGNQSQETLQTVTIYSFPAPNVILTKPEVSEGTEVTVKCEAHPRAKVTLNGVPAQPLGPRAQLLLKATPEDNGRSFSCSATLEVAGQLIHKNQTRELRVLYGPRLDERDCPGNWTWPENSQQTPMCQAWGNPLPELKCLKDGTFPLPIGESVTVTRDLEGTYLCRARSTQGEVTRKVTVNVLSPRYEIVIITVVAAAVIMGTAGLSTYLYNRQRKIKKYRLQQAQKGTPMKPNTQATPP
Molecule,"proliferative response to anti-CD3 after prepulse, with added IL-2 (resting lymphocytes)",Blockade of Adhesion of JY Cells to Soluble ICAM-R [1],Inhibition (%) of total CD18-dependent binding [1] [%],Blockade of Lymphocyte Activation SEA (human PBL),"proliferation in response to SEA, plate-bound antibody (human PBL)","IC50 (human PBL; from logistic dose response curves, proliferation versus control antibodies) [µg/mL]",Affinity (soluble ICAM-R),"percent positive COS cell transfectants, ICAM-1 (ICAM-1) [%]","percent positive COS cell transfectants, ICAM-R (ICAM-R) [%]"
B1,completely restored proliferative responses,YES,45,YES,significantly inhibited proliferation,63,Low (50% maximal binding at a monoclonal antibody concentration of greater than 1 μg/ml),2.43,54.33
B2,,YES,75,YES,significantly inhibited proliferation,,High (50% maximal binding at a monoclonal antibody concentration of less than 1 μg/ml),,
